# Assay results as given in article PMC10954620.
# Target: OmcS nanowires (cytochrome OmcS filaments of Geobacter sulfurreducens) (G. sulfurreducens (endogenous in strain ΔomcZ)) (UniProt Q74A86)
# Assay: NMR titration; 1D 1H NMR chemical shift perturbation of the heme methyl signals of oxidized PpcA-E with and without OmcS nanowires, single point at 1:4 heme ratio periplasmic cytochrome:OmcS; 50 mM potassium phosphate with KCl (ionic strength 150 mM), pH 7, 2H2O; 298 K, 600 MHz
# UniProt Q74A86, sequence (Q74A86 26-432, stated change not applied): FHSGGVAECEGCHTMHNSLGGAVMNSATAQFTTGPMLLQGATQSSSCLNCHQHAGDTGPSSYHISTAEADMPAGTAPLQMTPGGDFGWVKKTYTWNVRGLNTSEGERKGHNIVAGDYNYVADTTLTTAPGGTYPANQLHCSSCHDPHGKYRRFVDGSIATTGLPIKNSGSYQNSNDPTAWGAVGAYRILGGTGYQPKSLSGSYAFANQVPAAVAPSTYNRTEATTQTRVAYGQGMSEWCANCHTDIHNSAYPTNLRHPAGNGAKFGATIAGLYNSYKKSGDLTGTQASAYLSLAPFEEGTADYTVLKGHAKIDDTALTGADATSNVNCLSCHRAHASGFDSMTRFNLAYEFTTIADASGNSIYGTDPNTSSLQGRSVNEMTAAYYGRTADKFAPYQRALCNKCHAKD
row,chemical shift change of heme methyls (Δδ),Substance
1,< 0.04 ppm,Periplasmic triheme cytochrome PpcD (natural protein)
2,< 0.04 ppm,Periplasmic triheme cytochrome PpcE (natural protein)
3,< 0.04 ppm,Periplasmic triheme cytochrome PpcB (natural protein)
4,< 0.04 ppm,Periplasmic triheme cytochrome PpcA (natural protein)
